In patent US20190031783A1 (AbbVie / Abbott, published 2019):
Values joined by “and” are separate entries in the source; they are usually repeats but may differ in a detail not shown here. Equal entries are not always repeated.

Legend:
[1] = target: T1, human DLL4, full-length, expressed on HEK293G cells (human, UniProt Q9NR61 27-685); experiment: cell-based or functional assay
[2] = target: T1, human DLL4, full-length, expressed on …; experiment: cell-based or functional assay; remark: listed apart in the source
[3] = target: T2, purified recombinant human DLL4 extracellular domain (ECD) (human, UniProt Q9NR61 27-529); experiment: SPR (Biacore), antibody captured via anti-human Fc, DLL4 ECD injected, 25 C
T2 construct: extracellular domain; also called human DLL4529; huDLL4
Description: (§1) For DLL4 binding kinetic measurements the assay buffer was HBS-EPB: 10 mM Hepes, pH7.5, 150 mM NaCl, 3 mM EDTA, 0.005% Tween 20, 0.1 mg/ml BSA (Sigma A7906). For VEGF binding kinetic measurements the assay buffer was HBS-EP+(3N01B): 10 mM Hepes, pH7.5, 300 mM NaCl, 3 mM EDTA, 0.05% Tween 20, 0.1 mg/ml BSA (Sigma A7906). For example, approximately 9000 RU of goat anti-human Fc specific polyclonal antibody (Thermo Fisher Scientific Inc., Rockford, Ill.) diluted in 10 mM sodium acetate (pH 4.5) is directly immobilized across a CM5 research grade biosensor chip using a standard amine coupling kit according to manufacturer's instructions and procedures at 25 ug/ml. Unreacted moieties on the biosensor surface are blocked with ethanolamine. For kinetic analysis, rate equations derived from the 1:1 Langmuir binding model are fitted simultaneously to multiple antigen injections (using global fit analysis) with the use of Scrubber 2 (BioLogic Software), Biacore Biaevaluation 4.0.1 software or Biacore T100 Evaluation software. Purified antibodies are diluted in running buffer for capture across goat anti-human Fc reaction surfaces. Antibodies to be captured as a ligand (1 ug/ml) are injected over reaction matrices at a flow rate of 10 ul/min. During the assay, all measurements are referenced against the capture surface alone (i.e. with no captured antibody). […] The equilibrium dissociation constant KD (M) of the reaction between antibodies and the target antigen is then calculated from the kinetic rate constants by the following formula: KD=Koff/Kₒₙ. Binding is recorded as a function of time and kinetic rate constants are calculated.

[4] = target: T2, purified recombinant human DLL4 …; experiment: Notch competition ELISA: inhibition of biotin DLL4 ECD binding to coated human Notch-1
Description: Plates were then washed 3× with wash buffer (PBS, 0.05% Tween-20) and blocked with 200 μl/well blocking buffer (D-PBS, 1% BSA, 1 mM CaCl₂, 0.05% Tween-20) for 1 hour at 25° C. […] Assay plates were washed after blocking, and incubated with DLL4/antibody mixtures (100 μl/well, 1 hour at 25° C. with shaking). Plates were washed again and 100 μl/well of streptavidin conjugated with HRP (Fitzgerald #65R-S104PHRPx, diluted 1:5,000 in blocking buffer) was added for 1 hour at 25° C. with shaking. After a final wash, plates were developed using 100 μl/well substrate (TMB Sigma #T8665), and the reaction was stopped using 100 μl/well 1N HCl, and the absorbance was read at 450 nm. Data was analyzed using Graphpad Prism software and IC₅₀ values were reported as the concentration of antibody required to achieve 50% reduction of DLL4 binding to Notch1.

[5] = target: T2, purified recombinant human DLL4 …; experiment: SPR (Biacore), DVD captured via anti-human Fc, DLL4 ECD injected, 25 C
Description: as §1

B1: h1A11.1 humanized anti-DLL4 mAb (antibody, V domains shown)
VH: EVQLVESGGGLVQPGGSLRLSCAASGFTFSNFPMAWVRQAPGKGLEWVATISSSDGTTYYRDSVKGRFTISRDNAKNSLYLQMNSLRAEDTAVYYCARGYYNSPFAYWGQGTLVTVSS
VL: DIQMTQSPSSLSASVGDRVTITCRASEDIYSNLAWYQQKPGKAPKLLIYDTNNLADGVPSRFSGSGSGTDFTLTISSLQPEDFATYYCQQYNNYPPTFGQGTKLEIKR
IC50 (nM), DLL4-Notch reporter assay, h1A11.1 + Av mixture, 0 nM VEGF [1]: 8.64 nM and 9.17 nM
IC50 (nM), DLL4-Notch reporter assay, h1A11.1 + Av mixture, 6 nM BSG2 (negative control protein) present [1]: 9.55 nM
IC50 (nM), DLL4-Notch reporter assay, h1A11.1 + Av mixture, 6 nM VEGF present [1]: 9.97 nM
IC50 (nM), DLL4-Notch reporter assay, h1A11.1 + Av mixture, 150 nM BSG2 (negative control protein) present [1]: 10.9 nM
IC50 (nM), DLL4-Notch reporter assay, h1A11.1 + Av mixture, 150 nM VEGF present [1]: 10.3 nM

B2: h1A11.1-SL-Av Fab (Fab)
chain 1: EVQLVESGGGLVQPGGSLRLSCAASGFTFSNFPMAWVRQAPGKGLEWVATISSSDGTTYYRDSVKGRFTISRDNAKNSLYLQMNSLRAEDTAVYYCARGYYNSPFAYWGQGTLVTVSSASTKGPEVQLVESGGGLVQPGGSLRLSCAASGYTFTNYGMNWVRQAPGKGLEWVGWINTYTGEPTYAADFKRRFTFSLDTSKSTAYLQMNSLRAEDTAVYYCAKYPHYYGSSHWYFDVWGQGTLVTVSS
chain 2: not shown
IC50 (nM), DLL4 neutralization cellular assay, 0 nM VEGF [2]: > 40 nM
IC50 (nM), DLL4 neutralization cellular assay, 150 nM BSG2 present [2]: > 40 nM
IC50 (nM), DLL4 neutralization cellular assay, 150 nM VEGF present [2]: 4.56 nM

B3: humanized anti-DLL4 mAb (h1A11.1) (antibody, V domains shown)
VH: B1 VH
VL: B1 VL
notes: Parental humanized anti-DLL4 mAb
Kd [3]: 12 nM
koff [3]: 0.00193 s⁻¹
kon [3]: 160000 M⁻¹ s⁻¹

B4: Av-GS10-h1A11.1 (bispecific antibody, human IgG1)
VH: EVQLVESGGGLVQPGGSLRLSCAASGYTFTNYGMNWVRQAPGKGLEWVGWINTYTGEPTYAADFKRRFTFSLDTSKSTAYLQMNSLRAEDTAVYYCAKYPHYYGSSHWYFDVWGQGTLVTVSSGGGGSGGGGSEVQLVESGGGLVQPGGSLRLSCAASGFTFSNFPMAWVRQAPGKGLEWVATISSSDGTTYYRDSVKGRFTISRDNAKNSLYLQMNSLRAEDTAVYYCARGYYNSPFAYWGQGTLVTVSS
VL: DIQMTQSPSSLSASVGDRVTITCSASQDISNYLNWYQQKPGKAPKVLIYFTSSLHSGVPSRFSGSGSGTDFTLTISSLQPEDFATYYCQQYSTVPWTFGQGTKVEIKRGGSGGGGSGDIQMTQSPSSLSASVGDRVTITCRASEDIYSNLAWYQQKPGKAPKLLIYDTNNLADGVPSRFSGSGSGTDFTLTISSLQPEDFATYYCQQYNNYPPTFGQGTKLEIKR
notes: DVD-Ig
IC50 [4]: 1.5 nM
Kd [5]: 29 nM
